A short description of one data set: Thioflavin T. Format: physicochemical. As to conditions: 2.5 μM Aβ in PBS, 20 μM ThT, room temperature, shaking 100 rpm between reads.
The subject of data set [1] is immortalized human cortical astrocytes. The data set is described as follows: Cell viability of astrocytes. The class given is cell-based. As to conditions: 4 μM Aβ, 24 hours, 37°C; three biological replicates.
Data set [2] is described as follows: FCS size characterization. Format: physicochemical. As to conditions: individual 30 s FCS measurements, 10 per sample; three preparations.

Take “Aβ monomers: Aβ42 peptide with methionine as N-terminal residue, recombinantly expressed in E. coli, SEC-purified aggregate-free monomer”: the “ThT aggregation t1/2” value in the data set “Thioflavin T” came out at 1.32 ± 0.13 h.

Regarding “Aβ oligomers: stable pre-formed Aβ oligomers prepared by the protocol of Barghorn et al. with SDS”, in data set [1], the “toxicity of Aβ to astrocytes (cell viability)” value is “significantly higher toxicity”. Besides, the “CV of sizes within the same preparation” value in data set [2] is on record as 17 ± 2%.

The values are drawn from doi:10.1101/2025.11.19.685371v1 (bioRxiv, 2025).
